This test deals with herpes virus entry mediator (HVEM) (human (endogenous in monocyte‐derived macrophages)) (UniProt Q92956).
Chain of UniProt Q92956 (Q92956 39-283): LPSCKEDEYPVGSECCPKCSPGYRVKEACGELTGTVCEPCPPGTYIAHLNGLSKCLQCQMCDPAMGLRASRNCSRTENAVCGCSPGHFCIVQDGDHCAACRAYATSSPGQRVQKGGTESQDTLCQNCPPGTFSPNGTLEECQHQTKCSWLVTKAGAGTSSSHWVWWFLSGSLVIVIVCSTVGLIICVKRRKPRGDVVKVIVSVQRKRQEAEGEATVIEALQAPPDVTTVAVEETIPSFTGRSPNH

Turning to “recombinant human cyclophilin B (from UniProt P23284 34-216) (natural protein)”, the decrease of staurosporin-induced caspase-3 activity in primary macrophages exposed before to CyPB, against staurosporin alone came to 75%. As for “recombinant His‐tagged HSV‐1 gD (glycoprotein D of herpes simplex virus‐1) (from UniProt Q69091 26-394) (natural protein)”, the decrease of staurosporin-induced caspase-3 activity in primary macrophages exposed before to HSV-1 gD, against staurosporin alone came to 75%.

(Values after paper PMC5292672.)
